# Test results taken from patent publication US9549967B2, “Regulation of sodium channels by PLUNC proteins” (The University of North Carolina at Chapel Hill, priority 2009, dated 2017).
# T1: ENaC containing the βS518C mutant (Rattus norvegicus, UniProt P37089+P37090+P37091, S518C)
# T1 construct: expressed in transfected cells; host or cells: Xenopus oocytes
# T1 sequence (P37089 1-698): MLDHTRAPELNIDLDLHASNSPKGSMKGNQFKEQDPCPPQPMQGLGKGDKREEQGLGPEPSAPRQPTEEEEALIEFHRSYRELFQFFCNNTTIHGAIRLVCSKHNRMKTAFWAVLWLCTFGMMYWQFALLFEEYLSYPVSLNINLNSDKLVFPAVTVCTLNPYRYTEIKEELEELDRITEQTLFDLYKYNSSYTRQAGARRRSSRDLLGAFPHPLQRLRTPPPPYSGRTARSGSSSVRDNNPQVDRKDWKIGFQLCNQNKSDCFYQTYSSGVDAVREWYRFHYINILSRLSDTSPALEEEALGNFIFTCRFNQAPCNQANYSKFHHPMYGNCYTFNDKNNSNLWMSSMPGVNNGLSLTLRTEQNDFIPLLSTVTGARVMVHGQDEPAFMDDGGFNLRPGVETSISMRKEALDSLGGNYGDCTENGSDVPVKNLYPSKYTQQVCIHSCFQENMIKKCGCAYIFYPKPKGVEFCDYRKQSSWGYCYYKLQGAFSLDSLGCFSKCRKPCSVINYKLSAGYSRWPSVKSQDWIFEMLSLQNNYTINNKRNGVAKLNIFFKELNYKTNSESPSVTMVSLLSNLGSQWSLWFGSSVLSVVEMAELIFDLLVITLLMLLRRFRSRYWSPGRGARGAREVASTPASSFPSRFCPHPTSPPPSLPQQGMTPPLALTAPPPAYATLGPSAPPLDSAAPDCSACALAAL
# T1 sequence (P37090 1-638 S518C): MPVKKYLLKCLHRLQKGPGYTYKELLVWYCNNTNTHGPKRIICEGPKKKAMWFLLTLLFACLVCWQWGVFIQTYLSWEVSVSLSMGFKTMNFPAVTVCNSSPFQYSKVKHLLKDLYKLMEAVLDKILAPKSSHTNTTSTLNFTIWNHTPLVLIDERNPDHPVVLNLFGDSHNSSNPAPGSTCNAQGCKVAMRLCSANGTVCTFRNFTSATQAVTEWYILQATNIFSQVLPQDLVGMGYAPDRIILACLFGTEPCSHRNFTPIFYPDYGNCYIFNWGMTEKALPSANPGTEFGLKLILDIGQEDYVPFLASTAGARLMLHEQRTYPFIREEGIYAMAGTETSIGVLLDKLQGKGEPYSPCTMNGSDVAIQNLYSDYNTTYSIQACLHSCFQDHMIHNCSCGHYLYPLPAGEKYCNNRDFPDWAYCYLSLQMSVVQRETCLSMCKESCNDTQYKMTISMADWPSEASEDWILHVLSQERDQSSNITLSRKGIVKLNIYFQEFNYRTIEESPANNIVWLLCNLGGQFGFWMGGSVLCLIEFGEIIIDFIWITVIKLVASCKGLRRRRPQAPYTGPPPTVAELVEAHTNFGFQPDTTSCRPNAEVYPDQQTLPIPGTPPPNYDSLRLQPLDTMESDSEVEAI
# T1 sequence (P37091 1-650): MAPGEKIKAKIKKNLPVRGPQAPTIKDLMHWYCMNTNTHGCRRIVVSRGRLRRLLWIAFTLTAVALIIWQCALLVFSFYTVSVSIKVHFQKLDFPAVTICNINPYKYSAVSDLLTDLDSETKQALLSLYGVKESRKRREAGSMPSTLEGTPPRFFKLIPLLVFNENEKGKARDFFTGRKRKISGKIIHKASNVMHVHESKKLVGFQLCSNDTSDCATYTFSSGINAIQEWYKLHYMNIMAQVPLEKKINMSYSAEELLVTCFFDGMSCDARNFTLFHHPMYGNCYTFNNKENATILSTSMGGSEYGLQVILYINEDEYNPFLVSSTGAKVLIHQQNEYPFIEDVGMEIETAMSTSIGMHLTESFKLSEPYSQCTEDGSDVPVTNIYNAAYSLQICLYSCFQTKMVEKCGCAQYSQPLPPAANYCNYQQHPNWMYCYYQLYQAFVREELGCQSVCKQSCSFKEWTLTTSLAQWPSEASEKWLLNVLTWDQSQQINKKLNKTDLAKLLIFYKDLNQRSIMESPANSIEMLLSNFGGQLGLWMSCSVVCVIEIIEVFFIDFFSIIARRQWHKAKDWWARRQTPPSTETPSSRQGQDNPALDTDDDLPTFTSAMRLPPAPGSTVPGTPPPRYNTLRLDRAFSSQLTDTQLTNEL
# B1: SPLUNC1: human SPLUNC1, 256 amino acid secreted PLUNC protein (SEQ ID NO:1); rSPLUNC1 = V5/6His-tagged protein purified from HEK293 media (protein, listed as Homo sapiens)
# chain: MFQTGGLIVFYGLLAQTMAQFGGLPVPLDQTLPLNVNPALPLSPTGLAGSLTNALSNGLLSGGLLGILENLPLLDILKPGGGTSGGLLGGLLGKVTSVIPGLNNIIDIKVTDPQLLELGLVQSPDGHRLYVTIPLGIKLQVNTPLVGASLLRLAVKLDITAEILAVRDKQERIHLVLGDCTHSPGSLQISLLDGLGPLPIQGLLDSLTGILNKVLPELVQGNVCPLVNEVLRGLDITLVHDIVNMLIHGLQFVIKV
# modifications: V5/6His tag
# notes: rSPLUNC1 = V5/6His-tagged protein purified from HEK293 media
# Molecular target: T1, ENaC containing the βS518C mutant
# Assay: Oocyte current of ENaC containing the βS518C mutant with MTSET
# Type: cell-based
# Conditions: SPLUNC1 coexpression, n=6
# Experimental: Oocyte studies. Xenopus laevis oocytes were harvested and injected as described (Donaldson, et al., J. Biol. Chem. 277:8338 (2002)). Defolliculated healthy stage V-VI oocytes were injected with 0.3 ng of cRNA of each ENaC subunit. Injected oocytes were kept in modified Barth's saline (in mM: 88 NaCl, 1 KCl, 2.4 NaHCO3, 0.3 Ca(NO3)2, 0.41 CaCl2, 0.82 MgSO4, and 15 HEPES, adjusted to pH 7.35 with Tris). Oocytes were studied 24 hr after injection using the two electrode voltage clamp technique as previously described (Donaldson, et al., J. Biol. Chem. 277:8338 (2002)). Oocytes were clamped at a holding potential of […]. The change in amiloride-sensitive whole cell current as an indicator of ENaC activity was determined by subtracting the corresponding current value measured in the presence of 10 μM amiloride from that measured before the application of amiloride.
# The effect of SPLUNC1 on the number of ENaC channels in the plasma membrane was tested by expressing SPLUNC1 and αENaC in Xenopus oocytes. After surface biotinylation of αENaC, total lysate was prepared and lysate from 3-4 eggs was separated on a 10% gel.
molecule,measurement,value
B1,overall current with MTSET,still reduced
